Consider one molecule from CN112048019A.

In one test the target is 重组CD47-Fc融合蛋白 (human) (UniProt Q08722). Put plainly: competition ELISA: CD47-Fc coated, antibody blocks binding of SIRPα-His, anti-His-HRP detection.
Test [1] concerns the target CD47蛋白 (analyte in the ForteBio assay) (human) (UniProt Q08722). Put plainly: BLI (ForteBio), antibody captured on Protein A sensor, CD47 protein in solution at 6 concentrations. (In general: Biolayer interferometry detects binding as a change in optical thickness at a sensor tip.)
Test [2] has as its target CD47 on human cells (Jurkat target cells; human peripheral blood erythrocytes) (human) (UniProt Q08722). Kind of test: cell-based or functional assay.

B1: 市售抗体B6H12 (antibody, from another filing, V domains shown)
VH: EVQLVESGGDLVKPGGSLKLSCAASGFTFSGYGMSWVRQTPDKRLEWVATITSGGTYTYYPDSVKGRFTISRDNAKNTLYLQIDSLKSEDTAIYFCARSLAGNAMDYWGQGTSVTVSS
VL: DIVMTQSPATLSVTPGDRVSLSCRASQTISDYLHWYQQKSHESPRLLIKFASQSISGIPSRFSGSGSGSDFTLSINSVEPEDVGVYYCQNGHGFPRTFGGGTKLEIK
As a reminder, the EC50 is the concentration at which the effect is half-maximal. The term Kd denotes the concentration at which binding is half-saturated. Low values mean higher affinity, high ones lower affinity. The koff is the first-order rate constant of dissociation. For orientation: kon means the second-order rate constant of association. A high value points to fast association. In the case of B1, the EC50 with 重组CD47-Fc融合蛋白 (human) came to 143 nM. For the same molecule, in test [1], the Kd came to 7.16 nM, the off-rate (koff) was 0.000463 s⁻¹ and the kon came out at 64700 M⁻¹ s⁻¹. Besides, the 吞噬率/% (macrophage phagocytosis of CFSE-labelled Jurkat cells, flow cytometry) in test [2] came to 18%.
